Drawing on article doi:10.1101/2022.06.04.494841, this text covers stoichiometry N (Fe-protein per MoFe-protein) for one substance.

Several values for one entry are separate records, joined by “and”; a condition that tells them apart may be missing. Identical values can stand only once.

The target of the assay is MoFe-protein (molybdenum iron protein of the MoFe-nitrogenase) from Azotobacter vinelandii (Azotobacter vinelandii) (UniProt P07328). Kind of assay: cryo-EM structure.
Sequence of UniProt P07328 (P07328 whole entry, chain 1 of 2): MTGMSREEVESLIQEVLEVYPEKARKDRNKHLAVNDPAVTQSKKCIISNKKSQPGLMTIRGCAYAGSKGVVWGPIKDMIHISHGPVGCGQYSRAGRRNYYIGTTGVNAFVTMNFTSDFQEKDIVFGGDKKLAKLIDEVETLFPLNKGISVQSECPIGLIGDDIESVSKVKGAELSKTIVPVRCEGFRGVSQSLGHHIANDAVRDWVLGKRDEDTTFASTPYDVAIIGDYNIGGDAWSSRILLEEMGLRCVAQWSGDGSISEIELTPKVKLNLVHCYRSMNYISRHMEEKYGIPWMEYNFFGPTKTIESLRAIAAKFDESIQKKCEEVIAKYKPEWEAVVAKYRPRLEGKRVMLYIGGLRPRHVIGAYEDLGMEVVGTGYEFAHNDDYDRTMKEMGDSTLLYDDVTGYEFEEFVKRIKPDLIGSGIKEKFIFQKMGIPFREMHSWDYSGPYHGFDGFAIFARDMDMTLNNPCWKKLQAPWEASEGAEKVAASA
Sequence of UniProt P07328 (P07329 whole entry, chain 2 of 2, further chain): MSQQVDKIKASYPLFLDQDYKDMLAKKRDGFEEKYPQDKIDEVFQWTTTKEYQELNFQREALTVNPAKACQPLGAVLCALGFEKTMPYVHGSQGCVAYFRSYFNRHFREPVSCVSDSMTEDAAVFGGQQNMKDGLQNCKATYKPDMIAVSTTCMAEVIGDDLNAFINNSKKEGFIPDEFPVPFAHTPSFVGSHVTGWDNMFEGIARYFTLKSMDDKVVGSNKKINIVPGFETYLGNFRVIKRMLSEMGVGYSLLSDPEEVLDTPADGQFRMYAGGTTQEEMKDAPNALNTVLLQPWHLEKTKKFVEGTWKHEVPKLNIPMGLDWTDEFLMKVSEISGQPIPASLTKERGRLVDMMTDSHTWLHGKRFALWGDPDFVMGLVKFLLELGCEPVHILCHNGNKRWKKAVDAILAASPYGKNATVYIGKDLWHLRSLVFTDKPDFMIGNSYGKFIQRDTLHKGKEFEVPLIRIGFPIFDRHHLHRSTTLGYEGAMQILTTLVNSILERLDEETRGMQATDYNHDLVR

Turning to “Fe-protein (iron protein of the MoFe-nitrogenase) from Azotobacter vinelandii (enzyme)”, the stoichiometry N (Fe-protein per MoFe-protein) is 2 and 1.
